Test results from patent CN1709911A.

What was measured:
[1] = biological target: Raji肿瘤细胞核抗原 (Raji肿瘤细胞核提取物 / 固定Raji细胞); experiment: antigen binding activity, table 2, against rhTNT-IL2 (IgG1) as control; method not described
[2] = biological target: Raji肿瘤细胞核抗原 (Raji肿瘤细胞核提取物 / 固定Raji细胞); experiment: flow cytometry on paraformaldehyde-fixed Raji cells; 5 ul of 1 mg/ml, anti-human IgG-FITC; second of three values
[3] = biological target: Raji肿瘤细胞核抗原 (Raji肿瘤细胞核提取物 / 固定Raji细胞); experiment: flow cytometry on paraformaldehyde-fixed Raji cells; 5 ul of 1 mg/ml, anti-human IgG-FITC; third of three values
[4] = biological target: Raji肿瘤细胞核抗原 (Raji肿瘤细胞核提取物 / 固定Raji细胞); experiment: antigen binding activity, table 2; this molecule is the reference; method not described
[5] = biological target: Raji肿瘤细胞核抗原 (Raji肿瘤细胞核提取物 / 固定Raji细胞); experiment: flow cytometry on paraformaldehyde-fixed Raji cells; 5 ul of 1 mg/ml, anti-human IgG-FITC; first of three values

Row | Substance | 融合蛋白抗原结合活性 [1] [%] | further results
1 | 肿瘤坏死治疗单抗-白细胞介素2融合蛋白, IgG2重链恒定区, 全长IL2 (antibody) | 100 | –
2 | rhTNT-IL2融合蛋白 (重组人肿瘤坏死治疗单抗-白细胞介素2融合蛋白, IgG1, 连接肽AAAGGGS, 全长IL2) (antibody) | – | 特异结合活性 [2]: 98.3%; 特异结合活性 [3]: 98.6%; 融合蛋白抗原结合活性 [4]: 100%; 特异结合活性 [5]: 98.2%
3 | 肿瘤坏死治疗单抗-白细胞介素2融合蛋白, IgG2重链恒定区, IL2(Q22-C58) (antibody) | 100 | –
4 | 肿瘤坏死治疗单抗-白细胞介素2融合蛋白, IgG4重链恒定区, IL2(Q22-C58) (antibody) | 100 | –

Continued, in another order:

Row | 融合蛋白抗原结合活性 [1] [%] | Substance | further results
5 | 100 | 肿瘤坏死治疗单抗-白细胞介素2融合蛋白, IgG4重链恒定区, 全长IL2 (antibody) | –
6 | 100 | 肿瘤坏死治疗单抗-白细胞介素2融合蛋白, IgG3重链恒定区, IL2(Q22-C58) (antibody) | –
7 | 100 | 肿瘤坏死治疗单抗-白细胞介素2融合蛋白, IgG1重链恒定区, IL2(Q22-C58) (antibody) | –
8 | 100 | 肿瘤坏死治疗单抗-白细胞介素2融合蛋白, IgG3重链恒定区, 全长IL2 (antibody) | –
